Results reported in patent publication US20160368979A1 (CHEMOMAB, published 2016).

Assays:
Eotaxin 2 (CCL24), human [1] = molecular target: T1, Eotaxin 2 (CCL24), human (human, UniProt O00175 27-119); test: cell-based or functional assay
T1 sequence: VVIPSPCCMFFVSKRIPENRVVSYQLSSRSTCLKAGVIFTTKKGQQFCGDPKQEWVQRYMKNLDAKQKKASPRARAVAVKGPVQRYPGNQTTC

Eotaxin 1 (CCL11), human = Eotaxin 1 (CCL11), human (human, UniProt P51671 24-97); test: cell-based or functional assay
RANTES (CCL5), human = molecular target: T2, RANTES (CCL5), human (human, UniProt P13501 24-91); test: cell-based or functional assay
T2 sequence: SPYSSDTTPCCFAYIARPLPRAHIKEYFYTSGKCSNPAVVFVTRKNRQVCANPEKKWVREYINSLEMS

Eotaxin 2 (CCL24), human [2] = molecular target: T1, Eotaxin 2 (CCL24), human; test: Biacore SPR (eotaxin 2 immobilised on CM-5 chip) and ELISA
Protocol: The affinity constant of hCM101 or murine CM101 was evaluated using Biacore T100. This method uses Surface Plasmon Resonance (SPR) electrooptical phenomenon to measure the binding constants and on/off rates between binding partners. Eotaxin 2 was covalently immobilized on a surface of a CM-5 chip, and a solution of CM101 was passed over the surface. The changes in SPR angle were measured and enabled to determine the KD.

migration of CD14 negative cells towards Eotaxin 1, 2 and Rantes, % reduction at the high dose (Eotaxin 2 (CCL24), human [1]): ~90% | migration of CD14 negative cells towards Eotaxin 1, 2 and Rantes, % reduction at the high dose (Eotaxin 1 (CCL11), human): ~90% | migration of CD14 negative cells towards Eotaxin 1, 2 and Rantes, % reduction at the high dose (RANTES (CCL5), human): ~90% | Kd (Eotaxin 2 (CCL24), human [2]): 3 nM
B1: hCM101 (fully humanized anti-eotaxin-2 monoclonal antibody, humanized variant VH1/VK3) (antibody, human IgG1, V domains shown)
VH: QIQLVQSGPELKKPGASVKVSCRASGYPFTNSGMNWVKQAPGKGLKWMGWINTYNGEPTYTDDFKGRFAFSLETSASTAYLQINNLRNEDTATYFCASHSYGSSYAMDNWGQGTSVTVSS
VL: DIVLTQSPDSLAVSLGERATINCKASQSVDYDGDSYMNWYQQKPGQPPKLLIYVASNLKSGIPARFSGSGSGTDFTLTISSLQPEDFATYYCQQSNEEPWTFGGGTKVEIK
notes: also called VH1/K3; fully humanized CM101
